This note sets out measurements from US20090192100, “NOVEL USE OF SPIEGELMERS” (published 2009).

The target in the data set is T1, HMGA1b-His6 (Homo sapiens, S2G).
T1 chain: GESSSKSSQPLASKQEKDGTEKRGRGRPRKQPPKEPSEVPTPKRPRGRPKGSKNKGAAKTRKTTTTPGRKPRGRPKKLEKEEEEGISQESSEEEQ
The experiment in a line: streptavidin plate assay with nickel-HRP detection; poly(dGdC) competitor. The note with it: tags: C-terminal L-GSLNS-His6 (vector pHO2d), expressed in E. coli BL21; label: 5'-biotin on 34 nt strand. As for the experimental part: The detection of HMGA1b-His6 bound to DNA is carried out with horseradish peroxidase modified with nickel (Nickel-HRP), which transforms a fluorogenic substrate. In this assay the spiegelmer displaces the recombinant HMGA1b from its natural binding partner. On account of the 1:1:1 stoichiometry of spiegelmer/rHMGA1b/dsDNA AT Hook, a direct prediction can be made regarding the affinity of the spiegelmers for HMGA1b. The principle of the assay is illustrated in FIG. 5.
To carry out this test spiegelmers in various concentrations and HMGA1b-His6 (0.36 μg/ml; ca. 30 nM) in a total volume of 100 μl are incubated for 10 minutes in a tapered floor plate at room temperature while shaking. The incubation solution also contains: 25 mM Tris/HCl, pH 7.0 (Ambion, Austin, Tex., USA), 140 mM KCl (Ambion, Austin, Tex., USA), 12 mM NaCl (Ambion, Austin, Tex., USA), 0.8 mM MgCl2 (Ambion, Austin, Tex., USA), 0.25 mg/ml BSA (Roche, Mannheim, Germany), 1 mM DTT (Invitrogen, Karlsruhe, Germany), 18-20 μg/ml poly(dGdC) (Sigma, Deisenhofen, Germany)), 0.05% Tween 20 (Roche, Mannheim, Germany). […]
100 μl of the fluorogenic HRP substrate (QuantaBlue, Pierce, Bonn, Germany) are then added to each well and the fluorescence is measured after 15 mins (ex: 340/em: 405 nm).

B1: dsDNA AT hook (dsDNA)
DNA 1: TCGAAAAAAGCAAAAAAAAAAAAAAAAAACTGGC
DNA 2: GCCAGTTTTTTTTTTTTTTTTTTGCTTTTTT
Take B1: the binding result was “binds”.
